# In article PMC10397247:
# T1: APC1916-AA
# T1 chain: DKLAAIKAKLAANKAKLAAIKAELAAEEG
# T2: APC1987-AA
# T2 chain: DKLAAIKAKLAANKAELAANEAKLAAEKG
# T3: APC222-AA
# T3 chain: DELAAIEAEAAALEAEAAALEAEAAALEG
# T4: APC2257-AA
# T4 chain: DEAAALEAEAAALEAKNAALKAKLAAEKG
# T5: APC2375-AA
# T5 chain: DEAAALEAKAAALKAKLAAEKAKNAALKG
# T6: APC2474-AA
# T6 chain: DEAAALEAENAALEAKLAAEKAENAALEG
# T7: APC2543-AA
# T7 chain: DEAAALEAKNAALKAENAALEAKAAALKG
# T8: APC2556-AA
# T8 chain: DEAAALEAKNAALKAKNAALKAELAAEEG
# T9: APC2724-AA
# T9 chain: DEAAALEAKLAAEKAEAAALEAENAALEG
# T10: APC2811-AA
# T10 chain: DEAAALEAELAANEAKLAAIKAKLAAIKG
# T11: APC2981-AA
# T11 chain: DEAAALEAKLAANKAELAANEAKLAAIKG
# T12: APC3265-AA
# T12 chain: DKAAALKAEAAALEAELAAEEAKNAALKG
# T13: APC3323-AA
# T13 chain: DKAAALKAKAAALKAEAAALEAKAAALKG
# T14: APC3354-AA
# T14 chain: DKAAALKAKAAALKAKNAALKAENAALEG
# T15: APC3881-AA
# T15 chain: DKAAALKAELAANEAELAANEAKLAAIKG
# T16: APC4100-AA
# T16 chain: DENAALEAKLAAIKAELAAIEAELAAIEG
# T17: APC4336-AA
# T17 chain: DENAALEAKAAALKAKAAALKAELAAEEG
# T18: APC5009-AA
# T18 chain: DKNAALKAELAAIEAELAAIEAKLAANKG
# T19: APC542-AA
# T19 chain: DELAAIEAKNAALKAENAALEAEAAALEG
# T20: APC5531-AA
# T20 chain: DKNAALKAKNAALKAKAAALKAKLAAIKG
# T21: APC6088-AA
# T21 chain: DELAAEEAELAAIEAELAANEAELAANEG
# T22: APC7524-AA
# T22 chain: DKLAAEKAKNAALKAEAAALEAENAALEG
# T23: APC8401-AA
# T23 chain: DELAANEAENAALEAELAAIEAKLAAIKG
# T24: APC8516-AA
# T24 chain: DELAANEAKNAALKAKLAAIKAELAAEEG
# T25: APC9141-AA
# T25 chain: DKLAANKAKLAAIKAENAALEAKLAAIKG
# T26: APC9182-AA
# T26 chain: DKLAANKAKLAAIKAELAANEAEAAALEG
# T27: APC9291-AA
# T27 chain: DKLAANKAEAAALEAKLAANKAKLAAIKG
# T28: APC9806-AA
# T28 chain: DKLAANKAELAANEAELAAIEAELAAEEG
# T29: 4H1393-bH
# T29 chain: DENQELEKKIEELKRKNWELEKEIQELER
# T30: 4H1449-bH
# T30 chain: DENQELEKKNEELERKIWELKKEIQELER
# T31: 4H1629-bH
# T31 chain: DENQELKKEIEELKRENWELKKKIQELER
# T32: 4H1710-bH
# T32 chain: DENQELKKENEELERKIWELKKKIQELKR
# T33: 4H1804-bH
# T33 chain: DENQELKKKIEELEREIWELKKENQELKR
# T34: 4H2702-bA
# T34 chain: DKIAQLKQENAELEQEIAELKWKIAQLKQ
# T35: 4H3129-bH
# T35 chain: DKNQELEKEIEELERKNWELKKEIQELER
# T36: 4H3172-bH
# T36 chain: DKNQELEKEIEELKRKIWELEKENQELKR
# T37: 4H3414-bH
# T37 chain: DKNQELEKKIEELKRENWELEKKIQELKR
# T38: 4H3628-bA
# T38 chain: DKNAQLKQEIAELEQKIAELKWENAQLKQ
# T39: 4H3638-bH
# T39 chain: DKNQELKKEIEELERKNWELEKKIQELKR
# T40: 4H3817-bH
# T40 chain: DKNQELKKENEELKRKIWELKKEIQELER
# T41: 4H3974-bH
# T41 chain: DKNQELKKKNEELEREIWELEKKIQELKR
# T42: 4H570-bH
# T42 chain: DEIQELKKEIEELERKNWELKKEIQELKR
# T43: 4H584-bH
# T43 chain: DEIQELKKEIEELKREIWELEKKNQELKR
# T44: 4H619-bH
# T44 chain: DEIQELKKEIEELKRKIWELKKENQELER
# T45: 4H850-bH
# T45 chain: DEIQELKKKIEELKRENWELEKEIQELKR
# T46: 4H906-bH
# T46 chain: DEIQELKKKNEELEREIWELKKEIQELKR
# Legend:
# APC1916-AA = molecular target: T1, APC1916-AA; assay: two-hybrid library CCmax;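 note: natural log of median RNA to DNA barcode read ratio; higher means stronger binding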
# APC1987-AA = molecular target: T2, APC1987-AA; assay: two-hybrid library CCmax; conditions: mean of both orientations;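 note: natural log of median RNA to DNA barcode read ratio; higher means stronger binding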
# APC222-AA = molecular target: T3, APC222-AA; assay: two-hybrid library CCmax; conditions: mean of both orientations;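 note: natural log of median RNA to DNA barcode read ratio; higher means stronger binding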
# APC2257-AA = molecular target: T4, APC2257-AA; assay: two-hybrid library CCmax; conditions: mean of both orientations;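 note: natural log of median RNA to DNA barcode read ratio; higher means stronger binding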
# APC2375-AA = molecular target: T5, APC2375-AA; assay: two-hybrid library CCmax; conditions: mean of both orientations;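 note: natural log of median RNA to DNA barcode read ratio; higher means stronger binding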
# APC2474-AA = molecular target: T6, APC2474-AA; assay: two-hybrid library CCmax; conditions: mean of both orientations;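 note: natural log of median RNA to DNA barcode read ratio; higher means stronger binding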
# APC2543-AA = molecular target: T7, APC2543-AA; assay: two-hybrid library CCmax; conditions: mean of both orientations
# APC2556-AA = molecular target: T8, APC2556-AA; assay: two-hybrid library CCmax; conditions: mean of both orientations
# APC2724-AA = molecular target: T9, APC2724-AA; assay: two-hybrid library CCmax; conditions: mean of both orientations
# APC2811-AA = molecular target: T10, APC2811-AA; assay: two-hybrid library CCmax; conditions: mean of both orientations
# APC2981-AA = molecular target: T11, APC2981-AA; assay: two-hybrid library CCmax; conditions: mean of both orientations
# APC3265-AA = molecular target: T12, APC3265-AA; assay: two-hybrid library CCmax; conditions: mean of both orientations
# APC3323-AA = molecular target: T13, APC3323-AA; assay: two-hybrid library CCmax; conditions: mean of both orientations
# APC3354-AA = molecular target: T14, APC3354-AA; assay: two-hybrid library CCmax; conditions: mean of both orientations
# APC3881-AA = molecular target: T15, APC3881-AA; assay: two-hybrid library CCmax; conditions: mean of both orientations
# APC4100-AA = molecular target: T16, APC4100-AA; assay: two-hybrid library CCmax; conditions: mean of both orientations
# APC4336-AA = molecular target: T17, APC4336-AA; assay: two-hybrid library CCmax; conditions: mean of both orientations
# APC5009-AA = molecular target: T18, APC5009-AA; assay: two-hybrid library CCmax; conditions: mean of both orientations
# APC542-AA = molecular target: T19, APC542-AA; assay: two-hybrid library CCmax; conditions: mean of both orientations
# APC5531-AA = molecular target: T20, APC5531-AA; assay: two-hybrid library CCmax; conditions: mean of both orientations
# APC6088-AA = molecular target: T21, APC6088-AA; assay: two-hybrid library CCmax; conditions: mean of both orientations
# APC7524-AA = molecular target: T22, APC7524-AA; assay: two-hybrid library CCmax; conditions: mean of both orientations
# APC8401-AA = molecular target: T23, APC8401-AA; assay: two-hybrid library CCmax; conditions: mean of both orientations
# APC8516-AA = molecular target: T24, APC8516-AA; assay: two-hybrid library CCmax; conditions: mean of both orientations
# APC9141-AA = molecular target: T25, APC9141-AA; assay: two-hybrid library CCmax; conditions: mean of both orientations
# APC9182-AA = molecular target: T26, APC9182-AA; assay: two-hybrid library CCmax; conditions: mean of both orientations
# APC9291-AA = molecular target: T27, APC9291-AA; assay: two-hybrid library CCmax; conditions: mean of both orientations
# APC9806-AA = molecular target: T28, APC9806-AA; assay: two-hybrid library CCmax; conditions: mean of both orientations
# 4H1393-bH = molecular target: T29, 4H1393-bH; assay: two-hybrid library CCNG1
# 4H1449-bH = molecular target: T30, 4H1449-bH; assay: two-hybrid library CCNG1
# 4H1629-bH = molecular target: T31, 4H1629-bH; assay: two-hybrid library CCNG1
# 4H1710-bH = molecular target: T32, 4H1710-bH; assay: two-hybrid library CCNG1
# 4H1804-bH = molecular target: T33, 4H1804-bH; assay: two-hybrid library CCNG1
# 4H2702-bA = molecular target: T34, 4H2702-bA; assay: two-hybrid library CCNG1
# 4H3129-bH = molecular target: T35, 4H3129-bH; assay: two-hybrid library CCNG1
# 4H3172-bH = molecular target: T36, 4H3172-bH; assay: two-hybrid library CCNG1
# 4H3414-bH = molecular target: T37, 4H3414-bH; assay: two-hybrid library CCNG1
# 4H3628-bA = molecular target: T38, 4H3628-bA; assay: two-hybrid library CCNG1
# 4H3638-bH = molecular target: T39, 4H3638-bH; assay: two-hybrid library CCNG1
# 4H3817-bH = molecular target: T40, 4H3817-bH; assay: two-hybrid library CCNG1
# 4H3974-bH = molecular target: T41, 4H3974-bH; assay: two-hybrid library CCNG1
# 4H570-bH = molecular target: T42, 4H570-bH; assay: two-hybrid library CCNG1
# 4H584-bH = molecular target: T43, 4H584-bH; assay: two-hybrid library CCNG1
# 4H619-bH = molecular target: T44, 4H619-bH; assay: two-hybrid library CCNG1
# 4H850-bH = molecular target: T45, 4H850-bH; assay: two-hybrid library CCNG1
# 4H906-bH = molecular target: T46, 4H906-bH; assay: two-hybrid library CCNG1
binder,measurement,setting,value
DKLAAIKAKLAANKAKLAAIKAELAAEEG [APC1916-AA],interaction score,APC1916-AA,-1.89
same,interaction score,APC1987-AA,-2.06
same,interaction score,APC222-AA,-1.45
same,interaction score,APC2257-AA,-1.73
same,interaction score,APC2375-AA,-1.88
same,interaction score,APC2474-AA,-1.31
same,interaction score,APC2543-AA,-1.62
same,interaction score,APC2556-AA,-1.71
same,interaction score,APC2724-AA,-1.83
same,interaction score,APC2811-AA,-2.01
same,interaction score,APC2981-AA,-1.78
same,interaction score,APC3265-AA,-1.75
same,interaction score,APC3323-AA,-1.94
same,interaction score,APC3354-AA,-1.8
same,interaction score,APC3881-AA,-1.78
same,interaction score,APC4100-AA,0.352
same,interaction score,APC4336-AA,-1.64
same,interaction score,APC5009-AA,-0.00974
same,interaction score,APC542-AA,-1.62
same,interaction score,APC5531-AA,-1.75
same,interaction score,APC6088-AA,-1.82
same,interaction score,APC7524-AA,-1.57
same,interaction score,APC8401-AA,-0.817
same,interaction score,APC8516-AA,-1.83
same,interaction score,APC9141-AA,-1.7
same,interaction score,APC9182-AA,-1.82
same,interaction score,APC9291-AA,-2.08
same,interaction score,APC9806-AA,-2.04
DENQELEKKIEELKRKNWELEKEIQELER [4H1393-bH],interaction score,4H1393-bH,-0.111
same,interaction score,4H1449-bH,-2.77
same,interaction score,4H1629-bH,-0.557
same,interaction score,4H1710-bH,-0.501
same,interaction score,4H1804-bH,-1.63
same,interaction score,4H2702-bA,-2.15
same,interaction score,4H3129-bH,0.0961
same,interaction score,4H3172-bH,-0.553
same,interaction score,4H3414-bH,1
same,interaction score,4H3628-bA,-0.789
same,interaction score,4H3638-bH,1.2
same,interaction score,4H3817-bH,-0.474
same,interaction score,4H3974-bH,0.0308
same,interaction score,4H570-bH,-0.453
same,interaction score,4H584-bH,-0.3
same,interaction score,4H619-bH,-1.79
same,interaction score,4H850-bH,0.00584
same,interaction score,4H906-bH,-1.05
